Assay results reported in paper PMC9330529.

Columns and labels:
[1] = molecular target: SARS-CoV-2 spike protein Delta (SARS-CoV-2 (Delta variant)) (UniProt P0DTC2); assay: flow cytometry on Ni-NTA beads
[2] = molecular target: SARS-CoV-2 spike protein Delta (SARS-CoV-2 (Delta variant)) (UniProt P0DTC2); assay: streptavidin bead fluorescence binding

In the case of “CGCAGCACCCAAGAACAAGGACTGCTTAGGATTGCGATAGGTTCGGAAAAAAGGCGGGTTCCTAGACTTGTACTCAGCCT [S1B6C3-A5-S2A2C1]”, the Kd [1] is reported as 32.6 nM and the Kd [2] is reported as 34.1 nM.
